According to IntAct's records for PubMed 22632967:

B1: Cyclin-F (Homo sapiens), P41002 (parent)
chain: MGSGGVVHCRCAKCFCYPTKRRIRRRPRNLTILSLPEDVLFHILKWLSVEDILAVRAVHSQLKDLVDNHASVWACASFQELWPSPGNLKLFERAAEKGNFEAAVKLGIAYLYNEGLSVSDEARAEVNGLKASRFFSLAERLNVGAAPFIWLFIRPPWSVSGSCCKAVVHESLRAECQLQRTHKASILHCLGRVLSLFEDEEKQQQAHDLFEEAAHQGCLTSSYLLWESDRRTDVSDPGRCLHSFRKLRDYAAKGCWEAQLSLAKACANANQLGLEVRASSEIVCQLFQASQAVSKQQVFSVQKGLNDTMRYILIDWLVEVATMKDFTSLCLHLTVECVDRYLRRRLVPRYRLQLLGIACMVICTRFISKEILTIREAVWLTDNTYKYEDLVRMMGEIVSALEGKIRVPTVVDYKEVLLTLVPVELRTQHLCSFLCELSLLHTSLSAYAPARLAAAALLLARLTHGQTQPWTTQLWDLTGFSYEDLIPCVLSLHKKCFHDDAPKDYRQVSLTAVKQRFEDKRYGEISQEEVLSYSQLCAALGVTQDSPDPPTFLSTGEIHAFLSSPSGRRTKRKRENSLQEDRGSFVTTPTAELSSQEETLLGSFLDWSLDCCSGYEGDQESEGEKEGDVTAPSGILDVTVVYLNPEQHCCQESSDEEACPEDKGPQDPQALALDTQIPATPGPKPLVRTSREPGKDVTTSGYSSVSTASPTSSVDGGLGALPQPTSVLSLDSDSHTQPCHHQARKSCLQCRPPSPPESSVPQQQVKRINLCIHSEEEDMNLGLVRL
B2: Ribonucleoside-diphosphate reductase subunit M2 (Homo sapiens), P31350 (parent)
chain: MLSLRVPLAPITDPQQLQLSPLKGLSLVDKENTPPALSGTRVLASKTARRIFQEPTEPKTKAAAPGVEDEPLLRENPRRFVIFPIEYHDIWQMYKKAEASFWTAEEVDLSKDIQHWESLKPEERYFISHVLAFFAASDGIVNENLVERFSQEVQITEARCFYGFQIAMENIHSEMYSLLIDTYIKDPKEREFLFNAIETMPCVKKKADWALRWIGDKEATYGERVVAFAAVEGIFFSGSFASIFWLKKRGLMPGLTFSNELISRDEGLHCDFACLMFKHLVHKPSEERVREIIINAVRIEQEFLTEALPVKLIGMNCTLMKQYIEFVADRLMLELGFSKVFRVENPFDFMENISLEGKTNFFEKRVGEYQRMGVMSSPTENSFTLDADF
partner: B1 chain
B3: Cyclin-F (Homo sapiens), P41002 (parent)
chain: B1 chain
partner: B2 chain

Variants of: B1
Conditions: with cp110_human CCP110, O43303
cp110_human CCP110, O43303, sequence (O43303 whole entry): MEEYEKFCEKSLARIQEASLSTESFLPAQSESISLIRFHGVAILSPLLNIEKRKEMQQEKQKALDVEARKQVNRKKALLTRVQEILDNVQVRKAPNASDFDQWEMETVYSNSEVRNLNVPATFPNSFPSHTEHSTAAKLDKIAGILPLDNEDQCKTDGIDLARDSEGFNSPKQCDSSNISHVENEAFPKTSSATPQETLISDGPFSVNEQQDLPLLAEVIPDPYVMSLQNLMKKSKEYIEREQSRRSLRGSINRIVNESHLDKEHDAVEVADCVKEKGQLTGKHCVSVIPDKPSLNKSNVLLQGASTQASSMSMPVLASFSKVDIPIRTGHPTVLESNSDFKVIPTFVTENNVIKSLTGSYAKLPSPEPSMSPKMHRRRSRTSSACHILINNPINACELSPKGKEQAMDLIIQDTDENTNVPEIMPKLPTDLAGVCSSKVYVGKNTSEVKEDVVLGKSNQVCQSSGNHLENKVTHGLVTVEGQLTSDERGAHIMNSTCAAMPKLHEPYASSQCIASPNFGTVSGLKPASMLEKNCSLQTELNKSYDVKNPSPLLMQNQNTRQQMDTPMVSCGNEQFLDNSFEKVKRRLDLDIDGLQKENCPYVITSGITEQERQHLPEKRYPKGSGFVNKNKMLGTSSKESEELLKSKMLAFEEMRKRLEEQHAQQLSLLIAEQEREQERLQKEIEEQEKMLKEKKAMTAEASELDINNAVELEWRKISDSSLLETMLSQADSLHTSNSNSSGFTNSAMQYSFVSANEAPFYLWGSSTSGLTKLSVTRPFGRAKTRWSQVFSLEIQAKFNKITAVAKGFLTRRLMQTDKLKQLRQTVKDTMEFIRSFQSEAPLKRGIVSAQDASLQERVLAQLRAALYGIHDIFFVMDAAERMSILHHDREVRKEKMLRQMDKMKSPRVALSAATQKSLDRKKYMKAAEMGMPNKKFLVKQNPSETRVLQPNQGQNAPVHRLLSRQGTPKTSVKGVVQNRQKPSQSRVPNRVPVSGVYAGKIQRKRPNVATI

Variant | effect of a mutation on the interaction
L35A;P36A | increasing interaction strength

Variants of: B2
Conditions: with ccnf_human CCNF

Variant | effect of a mutation on the interaction
R49A;I51A | disrupting interaction strength
T33A | decreasing interaction strength

Variants of: B2
Conditions: with ccnf_human CCNF
Remark: another data set of the same source

Variant | effect of a mutation on the interaction
T33A | disrupting interaction strength

Variants of: B3
Conditions: with rir2_human RRM2, P31350

Variant | effect of a mutation on the interaction
L35A;P36A | increasing interaction strength
